First the molecules themselves.
B1: LRRC45 (parent)
chain: FQTRQEMTSMSAELKMRAIQAEER
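Note: lentivirally expressed fusions sorted by FACS into six bins by GFP to DsRed ratio, PSI derived from sequencing read proportions per bin multiplied by bin number.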

In this series the parent is B1. Put plainly: protein stability index of a GFP-peptide fusion (GPS, HEK-293T) (PSI 1-6); higher = more stable. To be noted: c terminus: a fixed tail appended.
In the case of FQTRQEMTSMSAHLKMRAIQAEER [E13H], the protein stability index is 3.08.
To FQTRQEMTSMSAVLKMRAIQAEER [E13V] belongs 3.35.
To FQTRQEMTSMSAQLKMRAIQAEER [E13Q] belongs 4.04; to FQTRQEMTSMSARLKMRAIQAEER [E13R], 3.57; to FQTRQEMTSMSAELKMRAIQNEER [A21N], 4.15.
For FQTRQEMTSMSAELKMRAIQHEER [A21H], the protein stability index is 4.03.
For FQTRQEMTSMSAELKMRAIQDEER [A21D], the protein stability index was 4.63.
With FQTRQEMTSMSAELKMRAIQCEER [A21C], the protein stability index is 3.68.
To FQTRQEMTSMSAELKMRAIQQEER [A21Q] belongs 3.79; to FQTRQEMTSMSAELKMRAIQLEER [A21L], 4.
To FQTRQEMTSMSAELKMRAIQGEER [A21G] belongs 3.97.
The value for FQTRQEMTSMSAELKMRAIQKEER [A21K] was 3.76; that for FQTRQEMTSMSAELKMRAIQFEER [A21F] was 3.89; that for FQTRQEMTSMSAELKMRAIQEEER [A21E] was 4.32.
For FQTRQEMTSMSAELKMRAIQREER [A21R], the protein stability index came out at 3.8.
Regarding FQTRQEMTSMSAELKMRAIQPEER [A21P], the protein stability index worked out at 3.89.
To FQTRQEMTSMSAELKMRAIQIEER [A21I] belongs 3.49; to FQTRQEMTSMSAELKMRAIQMEER [A21M], 3.57.
Take FQTRQEMTSMSAELSMRAIQAEER [K15S]: the protein stability index stood at 4.23.
To FQTRQEMTSMSAELYMRAIQAEER [K15Y] belongs 3.59; to FQTRQEMTSMSAELAMRAIQAEER [K15A], 4.16.
To FQTRQEMTSMSAELMMRAIQAEER [K15M] belongs 3.26; to FQTRQEMTSMSAELWMRAIQAEER [K15W], 2.88.
The value for FQTRQEMTSMSAELGMRAIQAEER [K15G] was 4.2.
With FQTRQEMTSMSAELHMRAIQAEER [K15H], the protein stability index amounted to 4.16.
The value for FQTRQEMTSMSAELQMRAIQAEER [K15Q] was 4.12; that for FQTRQEMTSMSAELDMRAIQAEER [K15D] was 4.65; that for FQTRQEMTSMSAELTMRAIQAEER [K15T] was 4.01.
To FQTRQEMTSMSAELRMRAIQAEER [K15R] belongs 4.38.
To FQTRQEMTSMSAELLMRAIQAEER [K15L] belongs 3.05; to FQTRQEMTSMSAELCMRAIQAEER [K15C], 3.86; to FQTRQEMTSMSAELIMRAIQAEER [K15I], 3.27.
FQTRQEMTSMSAELVMRAIQAEER [K15V]: the protein stability index is 3.29.
FQTRQEMTSMSAELPMRAIQAEER [K15P]: the protein stability index worked out at 4.38.
To FQTRQEMTSMSAELEMRAIQAEER [K15E] belongs 4.88; to FQTRQEMTSMSAELNMRAIQAEER [K15N], 4.26.
As for FQTRQEMTSMSAELFMRAIQAEER [K15F], the protein stability index turned out to be 2.97.
To FQTRQEMTSMSNELKMRAIQAEER [A12N] belongs 3.3; to FQTRQEMTSMSHELKMRAIQAEER [A12H], 4.12.
The value for FQTRQEMTSMSLELKMRAIQAEER [A12L] was 3.92; that for FQTRQEMTSMSQELKMRAIQAEER [A12Q] was 4.29.
To FQTRQEMTSMSWELKMRAIQAEER [A12W] belongs 2.04; to FQTRQEMTSMSSELKMRAIQAEER [A12S], 4.24; to FQTRQEMTSMSMELKMRAIQAEER [A12M], 3.72.
For the variant FQTRQEMTSMSCELKMRAIQAEER [A12C], the protein stability index came to 3.71.
For the variant FQTRQEMTSMSDELKMRAIQAEER [A12D], the protein stability index was 4.26.
In the case of FQTRQEMTSMSFELKMRAIQAEER [A12F], the protein stability index was determined as 3.3.
To FQTRQEMTSMSGELKMRAIQAEER [A12G] belongs 4.44; to FQTRQEMTSMSRELKMRAIQAEER [A12R], 3.73; to FQTRQEMTSMSYELKMRAIQAEER [A12Y], 3.39.
FQTRQEMTSMSEELKMRAIQAEER [A12E]: the protein stability index worked out at 4.44.
To FQTRQEMTSMSIELKMRAIQAEER [A12I] belongs 3.3; to FQTRQEMTSMSVELKMRAIQAEER [A12V], 3.47; to FQTRQEMTSMSPELKMRAIQAEER [A12P], 4.28.
The value for FQTRQEMTSMSKELKMRAIQAEER [A12K] was 3.92; that for FQTRQEMTSMSTELKMRAIQAEER [A12T] was 3.94.
To FQTRQEMTSMSAELKMRAIEAEER [Q20E] belongs 4.34; to FQTRQEMTSMSAELKMRAIFAEER [Q20F], 2.26.
As to FQTRQEMTSMSAELKMRAIGAEER [Q20G], the protein stability index was 3.62.
To FQTRQEMTSMSAELKMRAIKAEER [Q20K] belongs 3.5; to FQTRQEMTSMSAELKMRAIVAEER [Q20V], 3.28.
The value for FQTRQEMTSMSAELKMRAIWAEER [Q20W] was 2.74; that for FQTRQEMTSMSAELKMRAINAEER [Q20N] was 3.83.
The value for FQTRQEMTSMSAELKMRAICAEER [Q20C] was 3; that for FQTRQEMTSMSAELKMRAIIAEER [Q20I] was 2.8; that for FQTRQEMTSMSAELKMRAILAEER [Q20L] was 3.57.
As for FQTRQEMTSMSAELKMRAIDAEER [Q20D], the protein stability index was 3.99.
For the variant FQTRQEMTSMSAELKMRAIHAEER [Q20H], the protein stability index stood at 3.98.
As for FQTRQEMTSMSAELKMRAIPAEER [Q20P], the protein stability index amounted to 3.76.
Turning to FQTRQEMTSMSAELKMRAISAEER [Q20S], the protein stability index was determined as 4.11.
As for FQTRQEMTSMSAELKMRAIAAEER [Q20A], the protein stability index came to 4.3.
The value for FQTRQEMTSMSAELKMRAIYAEER [Q20Y] was 3.08; that for FQTRQEMTSMSAELKMRAIMAEER [Q20M] was 3.52.
To FQTRQEMTSMSAELKMRAITAEER [Q20T] belongs 3.9; to FQTRQEMTSMSAELKMRAIRAEER [Q20R], 3.2.
Turning to FQTRQEMTSMSAELKMRRIQAEER [A18R], the protein stability index stood at 3.96.
As for FQTRQEMTSMSAELKMRTIQAEER [A18T], the protein stability index stood at 3.95.
To FQTRQEMTSMSAELKMRHIQAEER [A18H] belongs 3.33; to FQTRQEMTSMSAELKMRGIQAEER [A18G], 3.81.
The value for FQTRQEMTSMSAELKMRCIQAEER [A18C] was 3.69; that for FQTRQEMTSMSAELKMRNIQAEER [A18N] was 3.88; that for FQTRQEMTSMSAELKMRWIQAEER [A18W] was 3.54.
For the variant FQTRQEMTSMSAELKMRDIQAEER [A18D], the protein stability index was 4.33.
To FQTRQEMTSMSAELKMRLIQAEER [A18L] belongs 3.92.
The value for FQTRQEMTSMSAELKMRFIQAEER [A18F] was 3.51; that for FQTRQEMTSMSAELKMRIIQAEER [A18I] was 3.75.
FQTRQEMTSMSAELKMRMIQAEER [A18M]: the protein stability index is 3.73.
Regarding FQTRQEMTSMSAELKMRPIQAEER [A18P], the protein stability index was determined as 3.45.
Consider FQTRQEMTSMSAELKMREIQAEER [A18E], for which the protein stability index was 4.08.
To FQTRQEMTSMSAELKMRYIQAEER [A18Y] belongs 3.69; to FQTRQEMTSMSAELKMRSIQAEER [A18S], 3.82.
The value for FQTRQEMTSMSAELKMRQIQAEER [A18Q] was 3.85; that for FQTRQEMTSMSAELKMRKIQAEER [A18K] was 3.72.
The value for FQTRQEMTSMSAELKMRVIQAEER [A18V] was 3.41.
